“And” between values parts separate entries of the source, which are not always exact repeats. Equal entries are not always repeated.
Target: T1, Human recombinant platelet factor-4 (human) (UniProt P02776)
T1 sequence (looked up): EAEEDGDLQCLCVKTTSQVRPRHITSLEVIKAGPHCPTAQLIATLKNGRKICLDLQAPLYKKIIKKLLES
Assay: PF4-sepharose affinity column, HUVEC conditioned medium

NaCl concentration at elution from the PF4 column: 0.4 M NaCl and 0.5 M NaCl
Substance: LOR-1 (from UniProt Q9Y4K0 26-774) (enzyme)

Reference: patent publication EP2078531A2
